The supplement of paper PMC10567573

B1: LOXL2 (parent)
chain: RLLRFSSQIHNNGQSDFRPKNGRH

Variants of: B1
Experiment: protein stability index of a GFP-peptide fusion (GPS, HEK-293T) (PSI 1-6); higher = more stable
Conditions: c terminus: a fixed tail appended
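Also: lentivirally expressed fusions sorted by FACS into six bins by GFP to DsRed ratio, PSI derived from sequencing read proportions per bin multiplied by bin number.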

Going from RLLRFSSQIHNNGQSDFSPKNGRH [R18S] to RLLRFSSQIHNNGQSDFTPKNGRH [R18T], the protein stability index rises from 3.05 to 3.29.

Going from RLLRFSSQIHNNGQSDFVPKNGRH [R18V] to RLLRFSSQIHNNGQSDFWPKNGRH [R18W], the protein stability index falls from 3.04 to 3.03.

Going from RLLRFSSQIHNNGQSDFYPKNGRH [R18Y] to RLLRFSSQIHNNGQSDFRAKNGRH [P19A], the protein stability index rises from 2.59 to 2.67.

Compared with RLLRFSSQIHNNGQSDFRCKNGRH [P19C], RLLRFSSQIHNNGQSDFRDKNGRH [P19D] is higher in protein stability index: 2.52 for the first, 2.9 for the second.

Going from RLLRFSSQIHNNGQSDFREKNGRH [P19E] to RLLRFSSQIHNNGQSDFRFKNGRH [P19F], the protein stability index falls from 3.29 to 2.13.

First: RLLRFSSQIHNNGQSDFRGKNGRH [P19G]
Second: RLLRFSSQIHNNGQSDFRHKNGRH [P19H]
The protein stability index of the first is higher: 2.78 for the first, 2.54 for the second.

Compared with RLLRFSSQIHNNGQSDFRIKNGRH [P19I], RLLRFSSQIHNNGQSDFRKKNGRH [P19K] is higher in protein stability index: 2.58 for the first, 2.71 for the second.

Compared with RLLRFSSQIHNNGQSDFRLKNGRH [P19L], RLLRFSSQIHNNGQSDFRMKNGRH [P19M] is lower in protein stability index: 2.54 for the first, 2.21 for the second.

First: RLLRFSSQIHNNGQSDFRNKNGRH [P19N]
Second: RLLRFSSQIHNNGQSDFRQKNGRH [P19Q]
The protein stability index of the first is higher: 2.84 for the first, 2.7 for the second.

Compared with RLLRFSSQIHNNGQSDFRRKNGRH [P19R], RLLRFSSQIHNNGQSDFRSKNGRH [P19S] is higher in protein stability index: 2.41 for the first, 2.98 for the second.

Going from RLLRFSSQIHNNGQSDFRTKNGRH [P19T] to RLLRFSSQIHNNGQSDFRVKNGRH [P19V], the protein stability index falls from 2.32 to 2.04.

Compared with RLLRFSSQIHNNGQSDFRWKNGRH [P19W], RLLRFSSQIHNNGQSDFRYKNGRH [P19Y] is lower in protein stability index: 2.76 for the first, 2.37 for the second.

Compared with RLLRFSSQIHNNGQSDFRPANGRH [K20A], RLLRFSSQIHNNGQSDFRPCNGRH [K20C] is lower in protein stability index: 2.49 for the first, 2.35 for the second.

First: RLLRFSSQIHNNGQSDFRPDNGRH [K20D]
Second: RLLRFSSQIHNNGQSDFRPENGRH [K20E]
The protein stability index of the first is lower: 2.91 for the first, 3.45 for the second.

Compared with RLLRFSSQIHNNGQSDFRPFNGRH [K20F], RLLRFSSQIHNNGQSDFRPGNGRH [K20G] is higher in protein stability index: 2.22 for the first, 2.79 for the second.

First: RLLRFSSQIHNNGQSDFRPHNGRH [K20H]
Second: RLLRFSSQIHNNGQSDFRPINGRH [K20I]
The protein stability index of the first is higher: 2.6 for the first, 2.17 for the second.

Compared with RLLRFSSQIHNNGQSDFRPLNGRH [K20L], RLLRFSSQIHNNGQSDFRPMNGRH [K20M] is higher in protein stability index: 1.89 for the first, 1.92 for the second.

First: RLLRFSSQIHNNGQSDFRPNNGRH [K20N]
Second: RLLRFSSQIHNNGQSDFRPPNGRH [K20P]
The protein stability index of the first is higher: 2.92 for the first, 2.47 for the second.

Going from RLLRFSSQIHNNGQSDFRPQNGRH [K20Q] to RLLRFSSQIHNNGQSDFRPRNGRH [K20R], the protein stability index rises from 2.54 to 2.78.

Going from RLLRFSSQIHNNGQSDFRPSNGRH [K20S] to RLLRFSSQIHNNGQSDFRPTNGRH [K20T], the protein stability index rises from 2.78 to 3.01.

Compared with RLLRFSSQIHNNGQSDFRPVNGRH [K20V], RLLRFSSQIHNNGQSDFRPWNGRH [K20W] is lower in protein stability index: 2.35 for the first, 2.08 for the second.

Compared with RLLRFSSQIHNNGQSDFRPYNGRH [K20Y], RLLRFSSQIHNNGQSDFRPKAGRH [N21A] is higher in protein stability index: 2.23 for the first, 2.82 for the second.

First: RLLRFSSQIHNNGQSDFRPKCGRH [N21C]
Second: RLLRFSSQIHNNGQSDFRPKDGRH [N21D]
The protein stability index of the first is lower: 2.13 for the first, 2.93 for the second.

Going from RLLRFSSQIHNNGQSDFRPKEGRH [N21E] to RLLRFSSQIHNNGQSDFRPKFGRH [N21F], the protein stability index falls from 2.97 to 2.04.

First: RLLRFSSQIHNNGQSDFRPKGGRH [N21G]
Second: RLLRFSSQIHNNGQSDFRPKHGRH [N21H]
The protein stability index of the first is higher: 2.49 for the first, 2.23 for the second.

Compared with RLLRFSSQIHNNGQSDFRPKIGRH [N21I], RLLRFSSQIHNNGQSDFRPKKGRH [N21K] is higher in protein stability index: 1.79 for the first, 2.85 for the second.

Going from RLLRFSSQIHNNGQSDFRPKLGRH [N21L] to RLLRFSSQIHNNGQSDFRPKMGRH [N21M], the protein stability index rises from 2.17 to 2.27.

Going from RLLRFSSQIHNNGQSDFRPKPGRH [N21P] to RLLRFSSQIHNNGQSDFRPKQGRH [N21Q], the protein stability index rises from 2.4 to 2.71.

First: RLLRFSSQIHNNGQSDFRPKRGRH [N21R]
Second: RLLRFSSQIHNNGQSDFRPKSGRH [N21S]
The protein stability index of the first is higher: 2.62 for the first, 2.33 for the second.

Compared with RLLRFSSQIHNNGQSDFRPKTGRH [N21T], RLLRFSSQIHNNGQSDFRPKVGRH [N21V] is higher in protein stability index: 2.37 for the first, 2.41 for the second.

Compared with RLLRFSSQIHNNGQSDFRPKWGRH [N21W], RLLRFSSQIHNNGQSDFRPKYGRH [N21Y] is higher in protein stability index: 1.52 for the first, 1.77 for the second.

Compared with RLLRFSSQIHNNGQSDFRPKNARH [G22A], RLLRFSSQIHNNGQSDFRPKNCRH [G22C] is lower in protein stability index: 2.57 for the first, 2.4 for the second.

First: RLLRFSSQIHNNGQSDFRPKNDRH [G22D]
Second: RLLRFSSQIHNNGQSDFRPKNERH [G22E]
The protein stability index of the first is higher: 2.94 for the first, 2.4 for the second.

Going from RLLRFSSQIHNNGQSDFRPKNFRH [G22F] to RLLRFSSQIHNNGQSDFRPKNHRH [G22H], the protein stability index rises from 2.11 to 2.4.

Compared with RLLRFSSQIHNNGQSDFRPKNIRH [G22I], RLLRFSSQIHNNGQSDFRPKNKRH [G22K] is higher in protein stability index: 2.19 for the first, 2.62 for the second.

First: RLLRFSSQIHNNGQSDFRPKNLRH [G22L]
Second: RLLRFSSQIHNNGQSDFRPKNMRH [G22M]
The protein stability index of the first is higher: 2.49 for the first, 2.27 for the second.

Compared with RLLRFSSQIHNNGQSDFRPKNNRH [G22N], RLLRFSSQIHNNGQSDFRPKNPRH [G22P] is higher in protein stability index: 2.58 for the first, 2.7 for the second.

Compared with RLLRFSSQIHNNGQSDFRPKNQRH [G22Q], RLLRFSSQIHNNGQSDFRPKNRRH [G22R] is lower in protein stability index: 2.89 for the first, 2.47 for the second.

Compared with RLLRFSSQIHNNGQSDFRPKNSRH [G22S], RLLRFSSQIHNNGQSDFRPKNTRH [G22T] is lower in protein stability index: 3.02 for the first, 2.39 for the second.

Going from RLLRFSSQIHNNGQSDFRPKNVRH [G22V] to RLLRFSSQIHNNGQSDFRPKNWRH [G22W], the protein stability index rises from 2.01 to 2.22.

Compared with RLLRFSSQIHNNGQSDFRPKNYRH [G22Y], RLLRFSSQIHNNGQSDFRPKNGAH [R23A] is lower in protein stability index: 2.71 for the first, 2.36 for the second.

First: RLLRFSSQIHNNGQSDFRPKNGCH [R23C]
Second: RLLRFSSQIHNNGQSDFRPKNGDH [R23D]
The protein stability index of the first is lower: 1.97 for the first, 2.99 for the second.

First: RLLRFSSQIHNNGQSDFRPKNGEH [R23E]
Second: RLLRFSSQIHNNGQSDFRPKNGFH [R23F]
The protein stability index of the first is higher: 3.2 for the first, 1.84 for the second.

First: RLLRFSSQIHNNGQSDFRPKNGGH [R23G]
Second: RLLRFSSQIHNNGQSDFRPKNGHH [R23H]
The protein stability index of the first is higher: 2.71 for the first, 2.36 for the second.

Compared with RLLRFSSQIHNNGQSDFRPKNGIH [R23I], RLLRFSSQIHNNGQSDFRPKNGKH [R23K] is higher in protein stability index: 1.82 for the first, 2.8 for the second.

First: RLLRFSSQIHNNGQSDFRPKNGLH [R23L]
Second: RLLRFSSQIHNNGQSDFRPKNGMH [R23M]
The protein stability index of the first is higher: 2.04 for the first, 1.84 for the second.

Compared with RLLRFSSQIHNNGQSDFRPKNGNH [R23N], RLLRFSSQIHNNGQSDFRPKNGPH [R23P] is lower in protein stability index: 3.03 for the first, 2.46 for the second.
